Numbering of substitutions follows the chain as printed.
How the values were obtained:
Assay in all cases: pull-down; GST-tagged MTR4 constructs as bait, Trx-NVL constructs as prey, glutathione sepharose; 10 μM GST-MTR4∆N with 20 μM Trx-NVL constructs; 50 mM Hepes pH 7.5, 150 mM NaCl, 5% glycerol, 0.05% NP40, 1 mM DTT, 30 min at 4 °C; SDS-PAGE, Coomassie
Conditions in all cases: both partners purified
GST-MTR4∆N R743E = biological target: T1, GST-MTR4∆N R743E (human, UniProt P42285 75-1042, R743E)
T1 construct: also called R743E mutant; source: E. coli BL21 star (DE3), purified (Ni-NTA, heparin, SEC); not shown: 6xHis-GST, N-terminal, kept
T1 sequence (looked up): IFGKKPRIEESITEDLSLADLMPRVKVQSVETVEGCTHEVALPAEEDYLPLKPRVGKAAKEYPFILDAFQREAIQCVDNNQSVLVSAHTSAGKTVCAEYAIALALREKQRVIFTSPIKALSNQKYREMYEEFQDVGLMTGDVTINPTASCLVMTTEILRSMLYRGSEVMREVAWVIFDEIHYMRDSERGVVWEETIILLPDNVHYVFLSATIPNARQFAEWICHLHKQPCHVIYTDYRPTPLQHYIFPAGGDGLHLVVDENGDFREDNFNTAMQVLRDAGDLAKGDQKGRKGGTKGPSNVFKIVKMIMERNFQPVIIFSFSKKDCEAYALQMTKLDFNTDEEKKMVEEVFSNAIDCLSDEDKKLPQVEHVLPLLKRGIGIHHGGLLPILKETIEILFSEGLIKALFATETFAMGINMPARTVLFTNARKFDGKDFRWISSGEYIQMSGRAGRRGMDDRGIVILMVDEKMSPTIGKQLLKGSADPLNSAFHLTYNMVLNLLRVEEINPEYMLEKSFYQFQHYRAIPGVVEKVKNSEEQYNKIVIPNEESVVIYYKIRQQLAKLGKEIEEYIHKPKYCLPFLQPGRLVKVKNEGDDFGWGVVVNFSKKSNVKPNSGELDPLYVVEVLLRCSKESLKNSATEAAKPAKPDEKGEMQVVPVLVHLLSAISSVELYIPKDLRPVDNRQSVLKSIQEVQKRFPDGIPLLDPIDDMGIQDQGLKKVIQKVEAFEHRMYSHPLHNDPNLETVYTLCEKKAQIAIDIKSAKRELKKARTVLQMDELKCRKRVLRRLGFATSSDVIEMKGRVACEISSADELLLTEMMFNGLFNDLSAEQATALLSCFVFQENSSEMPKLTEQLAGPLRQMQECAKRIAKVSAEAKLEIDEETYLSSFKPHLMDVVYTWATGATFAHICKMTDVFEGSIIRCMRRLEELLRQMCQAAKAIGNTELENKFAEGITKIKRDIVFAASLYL

GST-MTR4-KOW = biological target: T2, GST-MTR4-KOW (human, UniProt P42285 645-787)
T2 construct: human MTR4 KOW domain, residues 645–787; also called GST-tagged MTR4 KOW; source: E. coli BL21 star (DE3), purified (Ni-NTA, heparin, SEC); not shown: 6xHis-GST, N-terminal, kept
T2 sequence (looked up): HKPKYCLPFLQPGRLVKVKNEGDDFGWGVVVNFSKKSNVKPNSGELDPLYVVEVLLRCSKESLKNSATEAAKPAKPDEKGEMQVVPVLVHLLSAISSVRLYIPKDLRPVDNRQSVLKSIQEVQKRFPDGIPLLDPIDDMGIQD

GST-MTR4-∆N = biological target: T3, GST-MTR4-∆N (human, UniProt P42285 75-1042)
T3 construct: Tag is cleavable with 3C protease; kept for the GST pull-downs; also called GST-tagged MTR4∆N; source: E. coli BL21 star (DE3), purified (Ni-NTA, heparin, SEC); not shown: 6xHis-GST, N-terminal, kept
T3 sequence (looked up): T1 sequence (looked up) with E669R

Measured: binding result

B1: Trx-NVL^167–216 (domain or fragment, human, UniProt O15381 167-216, looked up)
chain: KDSEGGWFIDKTPSVKKDSFFLDLSCEKSNPKKPITEIQDSKDSSLLESD
notes: source: E. coli BL21 star (DE3), purified (Ni-NTA, SEC); not shown: 6xHis-Trx, N-terminal, kept
binds: all assays above
